For data set [1], the target named is 2-oxoglutarate:ferredoxin oxidoreductase from Magnetococcus marinus MC-1, αβ heterodimer (catalytic unit) (Magnetococcus marinus MC-1).
Substrate in data set [2]: CC(C)(COP(=O)(O)OP(=O)(O)OC[C@H]1O[C@@H](n2cnc3c(N)ncnc32)[C@H](O)[C@@H]1OP(=O)(O)O)[C@@H](O)C(=O)NCCC(=O)NCCS
Kind of data set: steady-state 2-oxoglutarate oxidation assay. The format is biochemical, Magnetococcus marinus. Conditions: pH 8.5, 2-oxoglutarate oxidation direction.

Substrate in data set [3]: O=C(O)CCC(=O)C(=O)O
Kind of data set: steady-state 2-oxoglutarate oxidation assay. It counts as biochemical, Magnetococcus marinus. The conditions noted are these: pH 8.5, apparent KM.

Consider “Magnetococcus marinus MC-1 ferredoxin 1 (natural protein)”, for which the KM of WT MmOGOR for MmFd1, CO2 reduction, pH 7.0 in data set [1] stood at 1.3 μM.

B1: MmOGOR (Magnetococcus marinus MC-1) (protein)
chain 1: MEKKDLIIRVAGEGGEGIISSGDFIAAACARAGLEVYTFKTFPAEIKGGYAMYQVRASSEKLYCQGDTFDVFCAFNGEAYEQNKDKIKPGTAFVYDYPGGDFEPDEIPEGVFAYPIPMSQTAKEMKSYRSKNMVALGALSELFNISENTLKEVLSDKFGKKGEEVLAFNLEAFDKGKALAKALTKADPFRVADPQEPKDVIIMAGNDAVGLGGILGGLEFFSAYPITPATEVAKYVATHLPKCGGDLVQAEDEIASIAQVLGASYAGKKSMTATSGPGLALMSEMLGMAHMSETPCLVVDVQRGGPSTGLPTKHEQSDLFLAIHGGHGDSPRIVLSVEDVKDCISMTVDGLNLAEKYQAPVIVLSDGSLAFSTQTIPRPKPEDFTIINRKTWDGQGTYKRYELTEDNISPMAAPGTPNAKHIATGLEHGETGAPNYSPANHELMHRKRFNKQNSVLDFYKNMEVEGVEGEADVGIITWGSTIGVVREAMQRLTAEGLKVKAMYPKLLWPMPVADYDAFGATCKKVIVPEVNFQGQLSHFIRAETSIKPIPYTICGGLPFTPEMIVNRVKEEIQ
chain 2: MTVEAFHKMENMKPKDYKSEVPTTWCPGCGHFGILNGVYRAMAELGIDSTKFAAISGIGCSSRMPYFVDSYKMHTLHGRAGAVATGTQVARPDLCVVVAGGDGDGFSIGGGHMPHMARKNVNMTYVLMDNGIYGLTKGQYSPTSRPEMTAYTTPYGGPENPMNPLLYMLTYGATYVAQAFAGKPKDCAELIKGAMEHEGFAYVNIFSQCPTFNKIDTVDFYRDLVEPIPEDHDTSDLGAAMELARRPGGKAPTGLLYKTSAPTLDQNLAKIRERLGGHVGYDKNKIIALAKP
Consider B1, for which, in data set [2], the Km was 6.8 µM, the kcat came to 24.7 s⁻¹ and the kcat/Km came to 3.6e+06 M⁻¹ s⁻¹. Besides, in data set [3], the Km is 4400 µM, the kcat came out at 30.3 s⁻¹ and the kcat/Km is 6900 M⁻¹ s⁻¹.

The term Km denotes the concentration of substrate that gives half-maximal velocity. The kcat is the maximal rate divided by the concentration of active sites. As usually defined, the kcat/Km is the turnover number divided by the Michaelis constant.

The values are drawn from publication PMC6508887.
